Results taken from patent US20130136748A1 (Ablynx, published 2013).
Like-named read-outs stand apart in the source and are kept apart here. Each block holds one molecule with its values, some of them ahead of it.

Columns and labels:
human HER1 = molecular target: T1, human HER1 (human, UniProt P00533 25-1210); experiment: FACS CHO-HER1, 5 µg/ml
T1 construct: also called EGFR; ErbB1

human HER2 = molecular target: T2, human HER2 (human, UniProt P04626 23-1255); experiment: FACS CHO-HER2, 5 µg/ml
T2 construct: also called hHER2

human HER4 = human HER4 (human, UniProt Q15303 26-1308); experiment: FACS CHO-HER4, 5 µg/ml
[1] = molecular target: T3, human HER3-Fc (R&D Systems, 348-RB) (human, UniProt P21860 20-643); experiment: HRG competition alphascreen
T3 construct: Bought; also called hHER3-Fc; Fc-HER3; Fc part of the bought chimera not given, not described

hHER3 full length [2] = molecular target: T4, hHER3 full length (human, UniProt P21860 20-1342); experiment: cell-based or functional assay
[3] = molecular target: T3, human HER3-Fc (R&D Systems, 348-RB); experiment: HRG competition alphascreen; remark: listed apart in the source
[4] = molecular target: T3, human HER3-Fc (R&D Systems, 348-RB); experiment: HRG competition alphascreen; remark: listed apart in the source
hHER3 full length [5] = molecular target: T4, hHER3 full length; experiment: cell-based or functional assay; remark: listed apart in the source
[6] = molecular target: T5, hHER3 ECD (human HER3 extracellular domain) (human, UniProt P21860 20-643); experiment: SPR off rate on HER3-ECD
T5 construct: also called recombinant HER3-ECD

[7] = molecular target: T3, human HER3-Fc (R&D Systems, 348-RB); experiment: HRG competition alphascreen; remark: listed apart in the source
hHER3 full length [8] = molecular target: T4, hHER3 full length; experiment: cell-based or functional assay; remark: listed apart in the source
[9] = molecular target: T5, hHER3 ECD (human HER3 extracellular …); experiment: SPR off rate on HER3-ECD; remark: listed apart in the source
[10] = molecular target: T3, human HER3-Fc (R&D Systems, 348-RB); experiment: 34C07 competition alphascreen

Sequence of human HER4 (Q15303 26-1308 limits assumed): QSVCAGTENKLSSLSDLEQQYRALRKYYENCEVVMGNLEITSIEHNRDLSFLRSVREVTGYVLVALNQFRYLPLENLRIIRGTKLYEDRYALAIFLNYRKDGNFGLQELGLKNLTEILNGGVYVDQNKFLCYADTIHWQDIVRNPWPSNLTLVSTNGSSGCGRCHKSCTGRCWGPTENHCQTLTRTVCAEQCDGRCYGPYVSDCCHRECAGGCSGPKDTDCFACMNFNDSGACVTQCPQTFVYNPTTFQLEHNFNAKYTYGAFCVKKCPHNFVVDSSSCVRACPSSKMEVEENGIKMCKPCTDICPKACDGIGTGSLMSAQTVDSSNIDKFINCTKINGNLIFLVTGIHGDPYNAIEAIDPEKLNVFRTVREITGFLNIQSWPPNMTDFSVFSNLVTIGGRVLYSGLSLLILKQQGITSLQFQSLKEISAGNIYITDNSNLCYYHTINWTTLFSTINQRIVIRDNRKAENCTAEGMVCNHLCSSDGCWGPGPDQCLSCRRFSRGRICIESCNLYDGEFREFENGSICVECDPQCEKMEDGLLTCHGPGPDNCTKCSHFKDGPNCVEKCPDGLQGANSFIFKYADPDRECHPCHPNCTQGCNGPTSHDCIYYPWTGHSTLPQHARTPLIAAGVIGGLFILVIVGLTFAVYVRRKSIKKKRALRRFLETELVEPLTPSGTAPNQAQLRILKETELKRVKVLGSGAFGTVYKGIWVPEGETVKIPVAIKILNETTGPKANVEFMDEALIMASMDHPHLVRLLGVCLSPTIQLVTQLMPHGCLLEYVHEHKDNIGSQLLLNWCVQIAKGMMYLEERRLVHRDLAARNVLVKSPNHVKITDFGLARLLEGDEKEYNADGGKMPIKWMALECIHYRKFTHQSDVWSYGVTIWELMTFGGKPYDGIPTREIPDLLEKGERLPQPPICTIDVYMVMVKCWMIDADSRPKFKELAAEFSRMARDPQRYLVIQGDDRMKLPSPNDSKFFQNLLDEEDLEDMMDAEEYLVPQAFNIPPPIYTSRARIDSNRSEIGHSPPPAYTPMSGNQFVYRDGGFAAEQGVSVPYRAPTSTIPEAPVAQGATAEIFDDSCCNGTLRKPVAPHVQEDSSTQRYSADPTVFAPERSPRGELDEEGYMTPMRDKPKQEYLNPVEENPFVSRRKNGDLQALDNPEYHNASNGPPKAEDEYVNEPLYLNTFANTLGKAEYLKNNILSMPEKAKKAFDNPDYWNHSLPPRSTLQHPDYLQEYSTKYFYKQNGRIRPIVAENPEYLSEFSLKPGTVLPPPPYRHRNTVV

Molecule: Anti-HER2 pAb (R&D Systems AF1129) (antibody)
MCF (human HER1): 323 | MCF (human HER2): 41000 | MCF (human HER4): 578

Molecule: Anti-HER4 pAb (R&D Systems AF1131) (antibody)
MCF (human HER1): 584 | MCF (human HER2): 932 | MCF (human HER4): 17000

Molecule: Anti-HER1 pAb (R&D Systems AF231) (antibody)
MCF (human HER1): 28200 | MCF (human HER2): 888 | MCF (human HER4): 418

B1: HER3MS00046 (VHH)
VHH: EVQLVESGGGLVQPGGSLRLSCAASGRTYYLNAMGWFRQGPGKDREFVAAIDWSDGNKDYADSVKGRFTISRDNSKNTVYLQMNSLRPEDTAVYYCAADTPPWGPMIYIESYDSWGQGTLVTVSS
notes: 21F06 + A14P, A74S, K83R, Q108L; also called HER3MS0046; 21F06 basic variant
IC50 [1]: 0.28 nM

B2: HER3MS00048 (VHH)
VHH: EVQLVESGGGLVQPGGSLRLSCAASGRTYYLNAMGWFRQGPGKEREFVAAIDWSDGNKDYADSVKGRFTISRDNSKNTVYLQMNSLRPEDTAVYYCAADTPPWGPMIYIESYDSWGQGTLVTVSS
notes: 21F06 basic + D44E; also called HER3MS0048
IC50 [1]: 0.27 nM

B3: HER3MS00047 (VHH)
VHH: EVQLVESGGGLVQPGGSLRLSCAASGRTYYLNAMGWFRQAPGKDREFVAAIDWSDGNKDYADSVKGRFTISRDNSKNTVYLQMNSLRPEDTAVYYCAADTPPWGPMIYIESYDSWGQGTLVTVSS
notes: 21F06 basic + G40A; also called HER3MS0047
IC50 [1]: 0.21 nM

B4: HER3MS00042 (VHH)
VHH: EVQLVESGGGLVQPGGSLRLSCAASGFTFSSYPMSWVRQAPGKGPAWVSTVSPGGITTSYADSVKGRFTISRDNSKNTLYLQMNSLRPEDTAVYYCLRDLNNRGQGTLVTVSS
notes: 04C07 + A14P, A74S, K83R, Q108L; also called HER3MS0042; 04C07 basic variant
IC50 pHER3, HRG1-β1 stimulated MCF7 (hHER3 full length [2]): 6.81e-09 M | IC50 [3]: 0.31 nM | IC50 [4]: 0.31 nM

B5: HER3MS00118 (VHH)
VHH: EVQLVESGGGLVQPGGSLRLSCAASGSIGGLNAMAWYRQAPGKERELVAGIFGVGSTRYADSVKGRFTISRDNSKNTVYLQMNSLRAEDTAVYYCRMSSVTRGSSDYWGQGTLVTVSS
notes: 17B05 second round, S84A; also called HER3MS0118
IC50 pHER3 blocking, HRG stimulated MCF7 (hHER3 full length [5]): 2.69e-09 M | koff [6]: 0.00018 s⁻¹ | IC50 [7]: 0.6 nM

B8: HER3MS00119 (VHH)
VHH: EVQLVESGGGLVQPGGSLRLSCAASGSIGGLNAMAWYRQAPGKERELVAGIFGVGSTRYADSVKGRFTISRDNSKNTVYLQMNSLRPEDTAVYYCRMSSVTRGSSDYWGQGTLVTVSS
notes: 17B05 second round, S84P (final variant); also called HER3MS0119
IC50 pHER3 blocking, HRG stimulated MCF7 (hHER3 full length [5]): 1.7e-09 M | koff [6]: 0.00018 s⁻¹ | IC50 [7]: 0.79 nM

B9: HER3MS00123 (VHH)
VHH: EVQLVESGGGLVQPGGSLRLSCAASGSIFRINAMAWYRQAPGKQRELVAEITAGGSTNYADSVKGRFTISRDNSWNTLYLQMNSLRPEDTAVYYCNLDHYTTWDRRSAYWGQGTLVTVSS
IC50 pHER3 blocking, MCF7 (hHER3 full length [8]): 3.09e-08 M | koff [9]: 0.00046 s⁻¹ | IC50 [10]: 7.6 nM

Further lines, results first:

IC50 pHER3 blocking, HRG stimulated MCF7 (hHER3 full length [5]): 4.28e-09 M | koff [6]: 0.00019 s⁻¹ | IC50 [7]: 0.75 nM
B6: HER3MS00120 (VHH)
VHH: DVQLVESGGGLVQPGGSLRLSCAASGSIGGLNAMAWYRQAPGKERELVAGIFGVGSTRYADSVKGRFTISRDNSKNTVYLQMNSLRAEDTAVYYCRMSSVTRGSSDYWGQGTLVTVSS
notes: 17B05 second round, E1D, S84A; also called HER3MS0120

IC50 pHER3 blocking, HRG stimulated MCF7 (hHER3 full length [5]): 3.53e-09 M | koff [6]: 0.00018 s⁻¹ | IC50 [7]: 0.55 nM
B7: HER3MS00121 (VHH)
VHH: DVQLVESGGGLVQPGGSLRLSCAASGSIGGLNAMAWYRQAPGKERELVAGIFGVGSTRYADSVKGRFTISRDNSKNTVYLQMNSLRPEDTAVYYCRMSSVTRGSSDYWGQGTLVTVSS
notes: 17B05 second round, E1D, S84P (final variant for N-terminal use); also called HER3MS0121

IC50 pHER3 blocking, MCF7 (hHER3 full length [8]): 3.05e-08 M | koff [9]: 0.00045 s⁻¹ | IC50 [10]: 7.1 nM
B10: HER3MS00124 (VHH)
VHH: EVQLVESGGGLVQPGGSLRLSCAASGSIFRINAMAWYRQAPGKQRELVAEITAGGSTNYADSVKGRFTISRDNSWNTLYLQMNSLRAEDTAVYYCNLDHYTTWDRRSAYWGQGTLVTVSS

IC50 pHER3 blocking, MCF7 (hHER3 full length [8]): 3.88e-08 M | koff [9]: 0.00046 s⁻¹ | IC50 [10]: 8.5 nM
B11: HER3MS00127 (VHH)
VHH: DVQLVESGGGLVQPGGSLRLSCAASGSIFRINAMAWYRQAPGKQRELVAEITAGGSTNYADSVKGRFTISRDNSWNTLYLQMNSLRPEDTAVYYCNLDHYTTWDRRSAYWGQGTLVTVSS

IC50 pHER3 blocking, MCF7 (hHER3 full length [8]): 4.05e-08 M | koff [9]: 0.00046 s⁻¹ | IC50 [10]: 6.7 nM
B12: HER3MS00128 (VHH)
VHH: DVQLVESGGGLVQPGGSLRLSCAASGSIFRINAMAWYRQAPGKQRELVAEITAGGSTNYADSVKGRFTISRDNSWNTLYLQMNSLRAEDTAVYYCNLDHYTTWDRRSAYWGQGTLVTVSS
